Experimental data as given in publication PMC12809078.

Molecular target: full-length SUMO-CtBP2 (human) (UniProt P56545)
Experiment: SEC; Superose 6 Increase 10/300 GL; 20 mM Tris-HCl pH 8.0, 150 mM NaCl, 2 mM DTT; 0.35 ml/min

full-length SUMO-CtBP2, P56545 1-445 (natural protein; other documents disagree on this pair)
stoichiometry N: 4
